*: point of attachment. 5FAM = O=C1OC2(c3ccc(O)cc3Oc3cc(O)ccc32)c2ccc(C(=O)*)cc21
T1: SUV39H1, full length with N-terminal maltose-binding protein (UniProt O43463 1-412)
T1 construct: SUV39H1 (KMT1A), full length; Plasmid generated for this study; The His tag is surmised from the nickel column purification; also called KMT1A; source: Rosetta E. coli, purified (HisTrap FF nickel column, dialysis)
T1 sequence (looked up): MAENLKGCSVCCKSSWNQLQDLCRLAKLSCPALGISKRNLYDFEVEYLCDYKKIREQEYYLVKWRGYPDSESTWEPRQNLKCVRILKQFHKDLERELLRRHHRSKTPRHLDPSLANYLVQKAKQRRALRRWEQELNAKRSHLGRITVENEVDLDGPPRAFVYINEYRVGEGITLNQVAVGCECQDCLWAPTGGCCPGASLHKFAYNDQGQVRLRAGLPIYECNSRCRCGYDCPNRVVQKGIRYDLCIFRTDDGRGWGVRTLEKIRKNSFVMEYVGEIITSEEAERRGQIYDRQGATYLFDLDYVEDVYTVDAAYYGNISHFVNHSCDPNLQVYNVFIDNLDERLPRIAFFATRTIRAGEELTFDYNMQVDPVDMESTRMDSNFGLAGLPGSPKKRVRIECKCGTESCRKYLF

T2: H. sapiens EHMT2 catalytic subunit (amino acids 913 to 1193) (H. sapiens, UniProt Q96KQ7 913-1193)
T2 construct: EHMT2 (G9a, KMT1C), human, catalytic subunit, amino acids 913 to 1193; Plasmid provided by the laboratory of Peter W. Lewis; The tag is surmised from the nickel column purification; also called G9a; KMT1C; source: Rosetta E. coli, purified (HisTrap FF nickel column, dialysis)
T2 sequence (looked up): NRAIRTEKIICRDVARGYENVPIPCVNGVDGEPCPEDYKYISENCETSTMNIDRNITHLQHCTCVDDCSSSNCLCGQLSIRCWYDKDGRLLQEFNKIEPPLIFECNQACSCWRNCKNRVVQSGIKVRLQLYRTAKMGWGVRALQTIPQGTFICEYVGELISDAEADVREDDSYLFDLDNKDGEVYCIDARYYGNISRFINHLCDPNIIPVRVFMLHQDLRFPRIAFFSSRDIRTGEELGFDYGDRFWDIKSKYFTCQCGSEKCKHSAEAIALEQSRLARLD

T3: H. sapiens EHMT1 catalytic subunit (amino acids 982 to 1266) (H. sapiens, UniProt Q9H9B1 982-1266)
T3 construct: EHMT1 (G9a-like protein, KMT1D), human, catalytic subunit, amino acids 982 to 1266; UniProt entry Q9H9B1 is printed for human EHMT1; Plasmid from Addgene (gift of Cheryl Arrowsmith); The tag is surmised from the nickel column purification; also called G9a-like protein; GLP; source: Rosetta E. coli, purified (HisTrap FF nickel column, dialysis)
T3 sequence (looked up): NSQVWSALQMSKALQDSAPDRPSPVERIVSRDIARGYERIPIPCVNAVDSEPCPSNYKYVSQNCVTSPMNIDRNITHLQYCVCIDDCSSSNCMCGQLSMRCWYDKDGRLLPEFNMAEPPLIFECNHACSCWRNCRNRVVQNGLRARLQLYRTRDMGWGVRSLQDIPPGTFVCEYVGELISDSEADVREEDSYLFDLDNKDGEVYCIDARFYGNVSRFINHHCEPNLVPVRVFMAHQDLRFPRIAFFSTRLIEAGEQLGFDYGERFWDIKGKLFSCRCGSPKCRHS


Experiments:
Assay in all cases: fluorescence polarisation; enzyme titrated (0-10 uM, monomeric) against a fixed 20-100 nM of N-terminus 5-FAM labeled H3(1-17) peptide, with 100 uM SAH; 50 mM HEPES pH 7.9, 2 mM MgCl2, 0.5 mM DTT, 0.1 mM AEBSF, 0.01% Triton X-100, 10% glycerol; 10 min at 25 °C; one site specific binding fit
Conditions in all cases: both partners purified
[1] = biological target: T1, SUV39H1, full length with N-terminal …
[2] = biological target: T2, H. sapiens EHMT2 catalytic subunit …
[3] = biological target: T4, H. sapiens SUV39H2 catalytic subunit (amino acids 162 to 410) (H. sapiens, UniProt Q9H5I1 162-410)
T4 construct: Plasmid from Addgene (gift of Cheryl Arrowsmith); The tag is surmised from the nickel column purification; also called KMT1B; source: Rosetta E. coli, purified (HisTrap FF nickel column, dialysis)
T4 sequence (Q9H5I1 162-410): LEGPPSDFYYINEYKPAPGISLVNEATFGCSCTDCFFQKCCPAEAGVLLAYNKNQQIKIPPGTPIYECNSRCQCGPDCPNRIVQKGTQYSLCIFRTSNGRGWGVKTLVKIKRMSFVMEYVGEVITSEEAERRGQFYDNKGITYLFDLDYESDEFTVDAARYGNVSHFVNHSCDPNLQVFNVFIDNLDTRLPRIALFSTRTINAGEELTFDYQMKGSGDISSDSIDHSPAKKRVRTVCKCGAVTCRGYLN

[4] = biological target: T3, H. sapiens EHMT1 catalytic subunit …

Row | Binder | Kd [1] [nM] | Kd [2] [nM] | Kd [3] [nM] | Kd [4] [nM]
1 | ARTKQTARKSTGGKAPR (peptide, UniProt P68431 2-18, looked up, 5-Carboxyfluorescein (5-FAM) on the N-terminus; dimethyl-lysine at 9, Histone H3, residues 1-17, lysine 9 dimethylated; Made on Rink-amide resin, so the C-terminus is probably an amide (surmised); also called H3K9me2; source: synthetic peptide (solid phase synthesis on Rink-amide ChemMatrix resin, C18-HPLC-purified)) [H3(1-17) K9 dimethylated peptide, N-terminus 5-FAM labeled] | 479 ± 123 | 40 ± 3 | 929 ± 573 | 124 ± 24
2 | 5FAM-ARTKQTARKSTGGKAPR-NH2 (peptide, UniProt P68431 2-18, looked up, Histone H3, residues 1-17, lysine 9 unmodified; Made on Rink-amide resin, so the C-terminus is probably an amide (surmised); Residues 1-17 are the same in H3.1, H3.2 and H3.3; also called H3K9un; source: synthetic peptide (solid phase synthesis on Rink-amide ChemMatrix resin, C18-HPLC-purified)) [H3(1-17) K9 unmodified peptide, N-terminus 5-FAM labeled] | 499 ± 45 | 16 ± 0.4 | 1080 ± 226 | 29 ± 1
3 | ARTKQTARKSTGGKAPR (peptide, UniProt P68431 2-18, looked up, 5-Carboxyfluorescein (5-FAM) on the N-terminus; monomethyl-lysine at 9, Histone H3, residues 1-17, lysine 9 monomethylated; Made on Rink-amide resin, so the C-terminus is probably an amide (surmised); also called H3K9me1; source: synthetic peptide (solid phase synthesis on Rink-amide ChemMatrix resin, C18-HPLC-purified)) [H3(1-17) K9 monomethylated peptide, N-terminus 5-FAM labeled] | 750 ± 47 | 26 ± 1 | 694 ± 98 | 74 ± 10

From PMC10404681, “Intrinsic catalytic properties of histone H3 lysine-9 methyltransferases preserve monomethylation levels under low S-adenosylmethionine” (The Journal of Biological Chemistry, 2023)
